Data set [1] has as its target T1, p22 (Tomato chlorosis virus (isolate AT80/99), UniProt Q001T4 1-193).
T1 sequence: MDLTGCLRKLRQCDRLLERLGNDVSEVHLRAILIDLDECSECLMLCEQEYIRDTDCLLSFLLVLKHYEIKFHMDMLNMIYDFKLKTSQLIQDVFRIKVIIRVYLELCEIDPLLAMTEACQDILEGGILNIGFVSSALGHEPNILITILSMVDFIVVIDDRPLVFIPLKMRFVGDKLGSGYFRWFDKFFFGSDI
The data set is described as follows: EMSA.

Data set [2] has as its target T1, p22. The data set is described as follows: EMSA. This is another data set of the same source.

Like-named read-outs stand apart in the source and are kept apart here.

The record followed here is article PMC7111720.

B1: 21 nt small dsRNA, free 3' OH (dsRNA)
RNA 1: ACUGGAGUUGUCCCAAUUCUU
RNA 2: GAAUUGGGACAACUCCAGUGA
Regarding B1, the binding result with p22 [1] is on record as “no binding”.

B2: 21 nt small dsRNA, DIG (dsRNA)
RNA 1: ACUGGAGUUGUCCCAAUUCUU
RNA 2: GAAUUGGGACAACUCCAGUGA
modifications: 3'-DIG on antisense strand
For B2, in the data set with p22 [2], the binding result was “no binding”.
